Measured values reported in the nanobody polyreactivity screen of Harvey et al. (2022).

test: yeast display, Sf9 membrane polyspecificity reagent, FACS + sequencing; frameworks hold sequencing errors
How it was run: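 Galactose induction of a Saccharomyces cerevisiae BJ5465 synthetic nanobody display library ran 36–48 hours. The cells were then stained for 1 hour at 4 °C with 10% biotinylated, detergent-solubilized Sf9 membrane reagent, pulled down on streptavidin microbeads and FACS-sorted into low and high (top ~1%) gates on expression and reagent-binding fluorescence. Labels for polyreactivity follow the gate of origin.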

Q: Which “polyreactivity (PSR sort gate)” value does the source give for “QVQLVESGGGLVQAGGSLRLICAASGSIFNGYAMGWYSQAPGKERELVADIRSGGSTYYADSVKGRFTISRDNAKNTVYLQMNSLKPEDTAVYYCAADTITDGYDYWGQGTQVTVSS” here?
A: The value was “low polyreactivity”.

Q: Which “polyreactivity (PSR sort gate)” value does the source give for “QVQLVESGGGLVQAGGSLRLSCAASGSIFGTNAMGRYRPAPGKERELVAAISWSGTSTYYADSVKGRFTISRDNAKNTVYLQMNSLKPEDTAVYYCAKRSGYSRGFYYWGQGTQVTVSS” here?
A: The value was “high polyreactivity”.

Q: For “QVQLVESGGGLVQAGGSLRLSCAASGSIFQGYSMGWYRQAPGKERELVAAITASGGSTYYADSVKGRFTISRDNAKNTVSLKMNSLKPEDTAVYYCATDSYWRHDLYRYEYWGQGSQVTVSS”, which “polyreactivity (PSR sort gate)” value is on record?
A: Its value is “high polyreactivity”.

Q: With “QVQLVESGGGLVQAGGSLRLSCAASGSTLVVNGMGWYRQAPGKERELVASISSDGSTNYADSVKGRFTISRDNAKNTVYLQMNSLKPEDTAVYYCASDEGTGQASLSSNLYDYWGQGTQVTVSS” as the sequence, how does the “polyreactivity (PSR sort gate)” value read?
A: The value was “low polyreactivity”.

Q: With “QVQQQESGGGLVQAGGSLRLSCAASGTIFQLTVMGRYRQASGKERELVASIDYGGNTNYADSVKGRFTISRDNAKNTVYLQMNSLKPEDTAVYFCAASSDSWTTHPYWGQGTQVTVSS” as the sequence, how does the “polyreactivity (PSR sort gate)” value read?
A: The value was “low polyreactivity”.

Q: With “QVQLVESGGGLVQAGGSLRLSCAASGIIFGTNAMGWYRQAPGKERELVAGITSSGDSTYYADSVKGRFTISRDNAKNTVYLQMNSLKPEDTAVYYCAAYSGVGFLWFDYWGQGTQVTVSS” as the sequence, how does the “polyreactivity (PSR sort gate)” value read?
A: The value was “low polyreactivity”.

Q: Which “polyreactivity (PSR sort gate)” value does the source give for “QVQLVESGGGLVQAGGSLRLICAASGYIFVRNAMGWYRQAPGKERELVAAISGSGGSTYYADSVKGRFTISRDNAKNTVYLQMNSLKPEDTAVYYSAADYATVTWRGIAYDYWGQGTQVTVSS” here?
A: The value was “low polyreactivity”.

Q: For “QVQLVESGGGLVQAGGSLRLSCAASGRIFDWNMGWYRQAPGKERELVAGITFSVDSTYYADSVKGRFTISRDNAKNTVYLQMNSLKPEDTAYWGQGTQVTVSS”, which “polyreactivity (PSR sort gate)” value is on record?
A: The value was “low polyreactivity”.

Q: With “QVQLVESGGGLVQAGGSLRLTCAASGRIFPVYAMGWYRQAPGKERELVAAISGSGGSTYYADSVKGRFTISRDNAKKSVYLQMNSLKPEDTAVYYCAAVTTPRFSIGYEYWGQGTQVTVSS” as the sequence, how does the “polyreactivity (PSR sort gate)” value read?
A: Its value is “low polyreactivity”.

Q: For “QVQLVESGGGLVQAGGSLRLICAASGRTFSVNDMGWYRQAPGKERELVAAISFSGGSTYYADSVKGRFTISRDNAKNTVYLQMNSLKPEDTAVYYCAAEAYPSWFYVITGFGIYDYWGQGTQVTVSS”, which “polyreactivity (PSR sort gate)” value is on record?
A: Its value is “high polyreactivity”.

Q: Which “polyreactivity (PSR sort gate)” value does the source give for “HVQLVESGGGLVQAGGSLRLSCAASGLIFYNYAMGWYRQAPGKERELVAAITGSGGSTYYADSVKGRFTISRDNAKNTVYLQMNSLKPEDTAVYYCAADGIYTFEYWGQGTLVTVSS” here?
A: The value was “low polyreactivity”.

Q: Which “polyreactivity (PSR sort gate)” value does the source give for “QVQLVESGGGLVQAGGSLRLSCAASGRTFYPYAMGWYIQAPGKEREFVATITWSGTTTYYADSVKGSFTISRDNAKNTFYLQMNSLKPVDTAVYYCAADVWEVVTPYGTIDDDYWGQGTQVTVSS” here?
A: Its value is “high polyreactivity”.

Q: With “QVQLVESGGGLVQAGGSLRLSCAASGITFYRYGMGWYRQAPGKERELVAAITSRGGSTSYADSVKGRFTISRDNAKNTVYLQMNSLKPEDTAVYYCAAFYRRDYDYWGQGTQVTVSS” as the sequence, how does the “polyreactivity (PSR sort gate)” value read?
A: The value was “high polyreactivity”.

Q: With “QVQLVESGGGLVQAGGSLRLSCAASGRTFERYAMGWYRQAPGQERELVAGITGRGGRTYYADSVKGRFTISRDNAKNTVYLQRNSLKPEDTAVYYCNKDTWVIHNYRYDYWGQGTQVTVSS” as the sequence, how does the “polyreactivity (PSR sort gate)” value read?
A: The value was “low polyreactivity”.

Q: For “QVQLVESGGGLVQAGGSLRLSCAASGFIFNYNTMGWYRQAPGKERELVAAITWSGVSTYADSVKGRFTISRDNAKNTVYLQMNSLKPEDTAVYYCAASPYQRESVYDFGYDYWGQGTQVTVSS”, which “polyreactivity (PSR sort gate)” value is on record?
A: Its value is “low polyreactivity”.

Q: Which “polyreactivity (PSR sort gate)” value does the source give for “QVQLVESGGGLVQAGGSLRLSSAASGSIFVLNAMGWYRQAPGKERELVAAITNVGSTYYADSVKGRFTISRDNAKNTVYLQMNSLKPEDTAVYYCNADPGEVLVGYDYWGQGTQVTVSS” here?
A: The value was “low polyreactivity”.

Q: With “QVKLEESGGGLVQAGGSLRLSCAASGFIFGSYAMGWYRQAPGKERELVAVISSSGGRTYYADSVKGRFTISRDNAKNTVYLQMNSLKPEDTAVYYCAAPWIARKYSPSEYDWGQGTQVTVSS” as the sequence, how does the “polyreactivity (PSR sort gate)” value read?
A: Its value is “high polyreactivity”.

Q: With “QVQLVESGGGLVQAGGSLRLSCAASGFIFYRYAMGWYRQAPGKESELVAAISWGGGSTTYYADSVKGRFTISRDNAKNTVYLQMNSLKPEDTAVYYCAAYIVKGYGSEYYYWGQGTQVTVSS” as the sequence, how does the “polyreactivity (PSR sort gate)” value read?
A: The value was “low polyreactivity”.

Q: Which “polyreactivity (PSR sort gate)” value does the source give for “QVQLVESGGGLVQAGGSLRLSCAASGRTRHGYTMGWYRQAPGKERELVATISSIGGSTYYADSLKGRFTISRDNAKNTVYLQMNSLKPEDTAVYYSNRGRARVIFSGMDYWGQGTQVTVSS” here?
A: Its value is “low polyreactivity”.

Q: For “QVQLVESGGGIVQAGGSLRLSCAASGSIFTVNALGWYRQAPGKERELVAAITFGGGRTYYADSVKGRFTISRDNAKNTVYLQMNSLKPEDTAVYYCAVSRKGLGSVEYWGQGTQVTVSS”, which “polyreactivity (PSR sort gate)” value is on record?
A: Its value is “low polyreactivity”.

Q: Which “polyreactivity (PSR sort gate)” value does the source give for “QVQLVESGGGLVQAGGSLRLSCAPSGFFFYSNTMGWYRQAPGKERELVDTISKRSGNTYYADSVKGRFTISRDFAKNTVYLQMNSLKPEDTSVYYCAADFWVRHKMWYPYTSIQAYNYWGQGTQVTVSS” here?
A: Its value is “high polyreactivity”.

Q: With “QVQLVESGGGLVQAGGSLRLSCAASGGTFGVNAMGWYRQAPGKDRELVAAISSSGGRTYYADSVKGRFTISRDNAKNTVYLQMNSLKPEDTAVYYCAARNYFWGQGTQVTVSS” as the sequence, how does the “polyreactivity (PSR sort gate)” value read?
A: The value was “low polyreactivity”.

Q: Which “polyreactivity (PSR sort gate)” value does the source give for “QVQLVESGGGLVQAGGSLRLSCAASGSTFRGNAMGWYRQAPGKERELVASITGGGSTNYADSVKGRFTISRDNAKNTVYLQMNSLKPEDTAVYYCAADWGADFYWGQGTQVTVSS” here?
A: Its value is “low polyreactivity”.

Q: Which “polyreactivity (PSR sort gate)” value does the source give for “QVQLVESGGGLVQAGGSLRLSCAASGNTFYGYAMGWYRQAPGKERELVASITLSGDSTYYADSVKGRFTISRDNAMNTVYLQMNSLKPEYTAVYYCAGVYTYPLGYYHYTYDYWGQGTQVTVSS” here?
A: The value was “low polyreactivity”.

Q: With “QVQLVESGGGLVQAGGSLRLSCAASGSTFYVYAMGWYRQAPGKERELVAGITDSGGSTYADSVKGRFTISRDNAKNTVYLQMNSLKPEVTAVYYCAADGETLTPRILGESEGDYWGQGTQVTVSS” as the sequence, how does the “polyreactivity (PSR sort gate)” value read?
A: The value was “low polyreactivity”.

Q: Which “polyreactivity (PSR sort gate)” value does the source give for “QVQLVESGGGLVQAGGSLRLSCAASGFTFLKNAMGWYRQAPGKERELVAAITSSGGRTYYADSVKGRFTISRDNAKYTVYLQMNSLKPEDTAVYYCNKGPLPGYDYWGQGNQVTVSS” here?
A: The value was “high polyreactivity”.

Q: Which “polyreactivity (PSR sort gate)” value does the source give for “QVQLVESGGGLVQAGGSLRLSCAASGNTFLPYAMGWYRQPPGKERELVAAISWSGGSTYYADSVKGRFTISRDTAKNTVYLQMNSLKPEDTAVYYCAATPTRRYYRQSAYDYWGQGTQVTVSS” here?
A: The value was “high polyreactivity”.

Q: Which “polyreactivity (PSR sort gate)” value does the source give for “QVQLVESGGGLVQAGGSLRLSCAASGTFYLYAMGWYRQAPGKERELVAAISGSGSTNYADSVKGRFTISRDNAKNTVYLQMNSLKPEDTAVYYCAAYQRYDSVTGARYEYDYWGQGTQVTVSS” here?
A: Its value is “low polyreactivity”.

Q: Which “polyreactivity (PSR sort gate)” value does the source give for “QVQLVESGGGLVQAGGSLRLSCAASGRTFRPYPMGWYRQAPGKERELVAAITRSGGSTYYADSVKGRFTISRDNAKNTVYLQMNSLKPEDTAVYYCAAYNTYSDTYDYWGQGTQVTVSS” here?
A: Its value is “low polyreactivity”.

Q: Which “polyreactivity (PSR sort gate)” value does the source give for “QVQLVESWGGLVQAGGSLRLSCAASGLTFETYVMGRYRQAPGKEREFVAAISSSGRTYYADSVKGRFTISRDNAKNTVYLQMNSLKPEDTAFYYCAARGREFGYWGQGTQVTVSS” here?
A: Its value is “high polyreactivity”.

Q: With “QVQLVESGGGLVQAGGSLRISCAASGSTFWTYAMGWYRQAPGKERELVAAITTGGNTYYADSVKGRFTISRDNAKNTVYLQMNSLKPEDTAVYSCAAASWTYYYSQYGAVFREYDYWGQGTEVTVSS” as the sequence, how does the “polyreactivity (PSR sort gate)” value read?
A: The value was “low polyreactivity”.

Q: For “QVQLVESGGGLVQAGGSLRLSCAASGITFTEYAMGWYRQAPGKERELVAAITGSGTSTYYADSVKGRFTISRDNAKNTVYLQMNSLKPEDTAVYYCAARTRGTAYNYWGQGTQVTVSS”, which “polyreactivity (PSR sort gate)” value is on record?
A: The value was “high polyreactivity”.

Q: Which “polyreactivity (PSR sort gate)” value does the source give for “QVQLGESGGGLVQAGGSLRLSCAASGSTFNRYAMGWYRQAPGKERELVAAISFSGGRTYYADSVKGRFTISRDNAKNTVYLQMNSLKPEDSAVYYCTKVVYGYFTRAYTYNYWGQGTQVTVSS” here?
A: The value was “high polyreactivity”.

Q: Which “polyreactivity (PSR sort gate)” value does the source give for “QVQLVESGGGLVQAGGSLRLSCAASGFTFAYNAMGWYRPAPGKERELVAAISGRGVSTYYADSVKGRFTISRDNAKNTVYLQMNSLKPEDTAVYYCAKRYRYWTTERYDYWGQGTQVTVSS” here?
A: Its value is “high polyreactivity”.

Q: For “QVQLVESGGGLVQAGGSLRLSCAASGIIFLDYVMGWYRQAPGKERELVAAISRSGGTTYYADSVKGRFTISRDNAKNTVYLQMNSLKPEDTAVYYCAVRSYRDTRFYYWGQGTQVTVSS”, which “polyreactivity (PSR sort gate)” value is on record?
A: Its value is “high polyreactivity”.

Q: With “QVQLVESGGGLVQAGGSLRLSCAASGIIFQFYAMGWYRQAPGKEREFVAAISARSGRTYYADSVKGRFTISRDNAKNTVYLQMNSLKPEDTAVYYCNTAYAYSGRYDYWGQGTQVTVSS” as the sequence, how does the “polyreactivity (PSR sort gate)” value read?
A: The value was “high polyreactivity”.

Q: With “QVQLVESGGGLVQAGGSLRLSCAASGITFWRYAMGWYRQAPGKERELVAAIRWSGSTYADSVKGRFTISRDNAKNTVYLQMNSLKPEDTAVYYCAAYPIGGYHDMDYWGQGTQVTVSS” as the sequence, how does the “polyreactivity (PSR sort gate)” value read?
A: The value was “high polyreactivity”.

Q: Which “polyreactivity (PSR sort gate)” value does the source give for “QVQLVESGGGLVQAGGSLRLSCAASGSIFIIYAMGWYRQAPGKERELVASITGRGDSTYYADSVKGRFTISRDNAKNTVYLQMNSLKPEDTAVYYCNAGVYVYRVPGKGYYWGQGTQVTVSS” here?
A: The value was “low polyreactivity”.

Q: For “QVHLVDSGGGLVQAGGSLRLSCAASGSISYDNAMGWYRQAPGKERELVAAITFSGDSTNYADSVKGRFTISRDNAKNTVYLQMNSLKPEDTAVYYCAASQVSDTTRFGYWGQGTQVTVSS”, which “polyreactivity (PSR sort gate)” value is on record?
A: The value was “low polyreactivity”.

Q: For “QVQLVESGGGLVQAGGILRLSCPASGSTLDRYVMGWYRQAPGKERELVAVISQSGGSTYYADSVKGRFTISRDNAKNTVYLQINSLKPEDTAVYYCAAKRYSFAYRQYDYWGQGTQVTVSS”, which “polyreactivity (PSR sort gate)” value is on record?
A: The value was “high polyreactivity”.

Q: For “QVQLVESGGGLVQAGGSLRLSCAASGRIIKYYTMGWYRQAPGKERELVAAISRGGTTNYADSVKGRFTISRDNAKNTVYLQMNSLKPEDTAVYYCNAVGFYAANTFDYWGQGTQVTVSS”, which “polyreactivity (PSR sort gate)” value is on record?
A: Its value is “high polyreactivity”.
